Test results from patent US20080176814, “DNA-BASED APTAMERS FOR HUMAN CATHEPSIN G” (GENTIUM SPA, published 2008).
Like-named read-outs stand apart in the source and are kept apart here.

T1: Cathepsin G (Homo sapiens) (UniProt P08311)
T1 sequence: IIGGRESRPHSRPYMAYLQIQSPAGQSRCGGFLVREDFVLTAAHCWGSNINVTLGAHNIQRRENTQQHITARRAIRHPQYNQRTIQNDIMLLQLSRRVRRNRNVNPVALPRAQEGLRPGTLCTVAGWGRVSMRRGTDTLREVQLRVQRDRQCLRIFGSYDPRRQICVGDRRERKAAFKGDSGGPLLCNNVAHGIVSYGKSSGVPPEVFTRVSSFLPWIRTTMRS

T2: Cathepsin G (Homo sapiens, UniProt P08311 P08311:21-244)
T2 sequence: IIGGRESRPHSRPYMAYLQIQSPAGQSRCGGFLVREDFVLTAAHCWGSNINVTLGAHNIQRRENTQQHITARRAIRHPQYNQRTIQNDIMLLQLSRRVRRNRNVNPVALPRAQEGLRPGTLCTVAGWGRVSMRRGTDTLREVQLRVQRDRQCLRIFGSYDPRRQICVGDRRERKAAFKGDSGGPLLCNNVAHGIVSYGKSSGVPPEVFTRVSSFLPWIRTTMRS


Tests used:
[1] = molecular target: T1, Cathepsin G (Homo sapiens); details: affinity chromatography; same buffer
[2] = molecular target: T1, Cathepsin G (Homo sapiens); details: affinity chromatography; same buffer; remark: listed apart in the source
[3] = molecular target: T1, Cathepsin G (Homo sapiens); experiment: SPR
[4] = molecular target: T1, Cathepsin G (Homo sapiens); experiment: SELEX; details: cycle 9 yield (0.4% at cycle 1); 30 mM Tris pH 7.5, 150 mM NaCl, 5 mM KCl, 5 mM MgCl2
[5] = molecular target: T2, Cathepsin G; details: affinity chromatography; G-quartet control
[6] = molecular target: T2, Cathepsin G; experiment: affinity chromatography; same buffer; details: tags: Europa Bioproducts or Calbiochem; from human neutrophils (SPR, amine-coupled to CM5 chip)
Method: The affinity of the oligonucleotides was determined by affinity chromatography as performed in the selection. Different aliquots of each oligonucleotide were previously incubated with 15 μg of Cathepsin G in ice. The solution was then loaded in the min-chromatography column used for the selection and washed with 15 volumes of buffer IB. After one hour incubation, it was washed with six volumes of buffer EB. Fractions of the same volumes were collected and counted.
We evaluated the oligonucleotide binding to cathepsin G by affinity chromatography in analogy with the selection method. The affinity of the aptamer CG51 was firstly compared with AC and GT oligonucleotides of the same length that, as mentioned, are clearly unable to fold into any structure characterised by Watson-Crick base pairs or G quartets formation. The complementary sequence of CG51, called cmpCG51, was included as a control.

[7] = relative potency vs GT 100, 25 C

Row | Molecule | Kd [2] | binding signal [3, 7] | also measured
1 | AC [(AC)30] |  |  | Kd [1]: 0.8 nM
2 | AC [(AC)60] | 1.2 nM |  | 
3 | AC [AC 40] |  | 0.0047 | 
4 | AC [AC 80] |  | 0.017 | 
5 | CGTACGGAATTCGCTAGCNNNNNNNNNNNNNNNNNNNNNNNNNNNNNNNNNNNNNNNNNNNNNNNNNNNNNNNNNNNNGGATCCGAGCTCCACGTG [cycle 9 selected pool] |  |  | binding signal [4]: 42%
6 | GT [(GT)10 / GT 20] | 2 nM |  | 
7 | GT [(GT)20 / GT 40] | 1.5 nM | 0.016 | 
8 | GT [(GT)30 / GT 60] |  | 0.144 | Kd [1]: 1 nM
9 | GT [(GT)40 / GT 80] | 1.2 nM | 0.32 | 
10 | GT [GT 30] |  | 0.002 | 
11 | GT [GT 100] |  |  | binding signal ([3]; relative potency, reference standard, HBS-EP pH 7.4, 25 C): 1
12 | THR thrombin aptamer |  |  | Kd [5]: 4 nM
13 | cmpCG51 (ssDNA, [NONE]) DNA: ACACGAATACCCTCTGTGCTCAGCGTAACACCCAAGCGTATACCCACATATCACACGTTG |  |  | Kd [6]: 0.6 nM
